Columns and labels:
[1] = target: superfolder green fluorescent protein (sfGFP); assay: AUC
[2] = target: superfolder green fluorescent protein (sfGFP); assay: ITC
[3] = target: superfolder green fluorescent protein (sfGFP); assay: MST
[4] = target: superfolder green fluorescent protein (sfGFP); assay: MST; remark: listed apart in the source

B1: anti-GFP nanobody (GFP-enhancer) (VHH)
VHH: QVQLVESGGALVQPGGSLRLSCAASGFPVNRYSMRWYRQAPGKEREWVAGMSSAGDRSSYEDSVKGRFTISRDDARNTVYLQMNSLKPEDTAVYYCNVNVGFEYWGQGTQVTVSS
[1]
  Kd: 1.72 nM
  stoichiometry N: 1
[2]
  Kd: 1 nM
  dH: -11.1 kcal/mol
[3]
  Kd: 1.52 nM
[4]
  Kd: 1.53 nM
